Measurements: patent publication US20120301393A1, “MODIFIED UBIQUITIN PROTEINS HAVING A SPECIFIC BINDING ACTIVITY FOR THE EXTRADOMAIN B OF FIBRONECTIN” (Scil Proteins GmbH, priority 2009, published 2012)
Entries after “also recorded” stand apart in the source; their conditions may differ.

Legend:
[1] = biological target: immobilized ED-B containing fibronectin fragment (67B89) (Homo sapiens, UniProt P02751); test: competitive concentration dependent ELISA; type: binding; settings: in the presence of increasing amounts of free target
Experimental: Competitive concentration dependent ELISAs analyzed the binding of ubiquitin variant 1041-D11 to immobilized ED-B containing fibronectin fragment […] in the presence of increasing amounts of free target. Conditions of the ELISA were as described for Example 5A, except that 1041-D11 protein was preincubated with ED-B (67B89) (0 μM-10 μM) or also with negative control 6789 (0 μM-10 μM) for 1 h and subsequently the mixture was given to the target 67B89 that was placed on a Medisorp-plate; following this, the variant was detected by the corresponding antibody (anti-Ubiquitin-Fab-POD; dilution 1:6500).

[2] = tissue panel staining (48 tissues, FDA relevant panel)
[3] = biological target: ED-B (67B89) (Homo sapiens, UniProt P02751); test: concentration dependent ELISA analyzing serum-stability of binding activity; settings: 1 h at 37° C. in mouse or rat serum
Experimental: The ELISA is performed using procedures well known in the art and as described above (Example 5A and 5B). ED-B (here referred to as 67B89) is coated to microtiter plates, the variant is bound to ED-B and detected by a specific ubiquitin-antibody (Anti-Ubi-Fab-POD). The variant in this assay is treated in different ways: the variant is incubated in mouse serum for 1 h at 37° C. (see in FIG. 13, circles in blue); the variant is incubated in rat serum for 1 h at 37° C. (in FIG. 13, circles in red); or the variant is incubated PBS for 1 h at 37° C. (in FIG. 13, circles in black).

[4] = biological target: ED-B containing fibronectin fragment (67B89) (Homo sapiens, UniProt P02751); test: label-free interaction assay using Biacore; type: binding; settings: 1:1-Langmuir-fitting
Experimental: Different concentrations of the variant were analyzed (for example, 0-200 nM of the variant, preferably 1041-D11) for binding to an ED-B containing fibronectin fragment (referred to as 67B89) immobilized on a CM5-chip (Biacore) using methods known to those skilled in the art. The obtained data were processed via the BIAevaluation software and 1:1-Langmuir-fitting. The kinetic binding constants were kon=7.6*10^5 M^−1 s^−1; koff=7.7*10^−4 s^−1. […]

[5] = biological target: T1, Human fibronectin lacking the ED-B domain (h6789) (Homo sapiens, UniProt P02751); test: concentration dependent ELISA, negative control fibronectin fragment without ED-B; type: binding
T1 construct: fibronectin fragment 6789 without ED-B

[6] = test system: murine Balb 3T3-cells; test: binding to cell culture cells, Balb 3T3; type: cell-based; settings: 1, 10, 50 nM
Experimental: (§1) The binding of, for example, variant 1041-D11 to cell culture cells was tested. Different cell culture cells were analysed, including normal human fetal lung fibroblast cells having high expression levels of ED-B (Wi38 cells), a mouse embryonic fibroblast cell line (Balb 3T3); a stromal cell line, derived from mouse bone marrow (ST-2) monocytes/macrophages (RAW 264.7), NHDF cells and murine fibroblast cells (LM).
(§2) Similar experiments were performed using different cells types, for example Balb3T3 (ATCC, Kat-Nr. 30-2002), Raw (Lonza, Kat-Nr. BE12-115F/U1), ST-2 (Lonza, Kat-Nr. BE12-115F/U1).

[7] = test system: monocytes/macrophages (RAW 264.7); test: binding to cell culture cells, Raw; type: cell-based; settings: data not shown
Experimental: as §1, §2

[8] = biological target: fibronectin fragment 67B89 (soluble ED-B) (Homo sapiens, UniProt P02751); test: complex-formation analysis by SE-HPLC with 67B89; type: binding; settings: 0.72 nmol each, 1 h RT
Experimental: (§3) For the analysis of complex formation, Tricorn Superdex 75 5/150 GL columns (GE-Healthcare) (V=3 ml) was used, protein amount of 50 μl was applied. Further conditions: buffer: 1×PBS, pH 7.3, flow-rate: 0.3 ml/min, run: 45 min (injection of sample: after 15 min). Condition: 0.72 nmol 1041-D11 protein+0.72 nmol ED-B (herein referred to 67B89 or also as a negative control 6789) incubated for 1 h at RT; then applied to column for analysis of complex-formation. In FIG. 14, only the variant is shown in black, only the target ED-B is shown in blue, the variant binding building a complex with ED-B in pink.

[9] = test system: murine ST-2-cells; test: binding to cell culture cells, ST-2; type: cell-based; settings: 1, 10, 50 nM
Experimental: as §1, §2

[10] = biological target: T2, ED-B free fibronectin fragment 6789 (Homo sapiens, UniProt P02751); test: complex-formation analysis by SE-HPLC with 6789; type: binding; settings: 0.72 nmol each, 1 h RT
T2 construct: fibronectin fragment 6789 without ED-B
Experimental: as §3

[11] = test system: human fetal lung fibroblast cells (Wi38); test: binding to cell culture cells, Wi38; type: cell-based; settings: immunofluorescence
Experimental: as §1
The negative control cell type NHDF are primary normal fibroblast cells, which express low levels of EDB-fibronectin (data not shown).
The negative control cell type NHDF is primary normal fibroblast cells, which express low levels of EDB-fibronectin. The cells were plated in chamber-slides (NUNC, 60000 cells/ml). To analyses the binding potential the cells were fixed with 100% MeOH for 5 min at −20° C. To block unspecific binding, the cells were incubated with 5% Horse-serum 1 h 37° C. The cells were tested with the variant 1041-D11, an ED-B specific antibody FV28 CH4/F1 as positive control or UB—2 as negative control with different concentrations 1 h RT. The proving occurred about an incubation with rabbit-a-Strep-Tag-IgG (obtained from GenScript A00875, 1:500) for 1 h and incubation with a-rabbit-IgG*Alexa488-AK (obtained from Invitrogen A11008, 1:1000) for 1 h. The nuclei were stained with DAPI. […] The first 2 lines show the variant and positive control on Wi38-cell line.

[12] = biological target: T3, ED-B in F9 tumor vasculature (Mus musculus, UniProt P11276); test: immunohistochemistry on F9 tumor tissue sections; parameters: species or system mice; settings: seven samples
T3 construct: 1041-D11 specifically decorates the vasculature in tissue sections from F9 tumors; from tissue; host or cells: F9 tumor tissue sections from mice
Experimental: F9 tumor tissues from seven samples were evaluated. […] ED-B is a highly specific marker for tumor vasculature. The target protein EDB is located on the abluminal side of the vessels. 1041-D11 specifically decorates the vasculature in tissue sections from F9 tumors. […] Thus, fusion proteins based on modified ubiquitin specifically binding to ED-B are suitable an ED-B based targeted therapy for cancer.

[13] = test system: L929 cells; test: L929 apoptosis assay (TNFα activity); type: cell-based; settings: actinomycinD sensitized L929 cells, 48 h; listed as free cytokine; read-out: EC50 value, corresponding TNFα (free cytokine) tested in parallel
Experimental: The physiological TNFα-activity of TNFα-modified ubiquitin based ED-B binding fusions has been determined using the L929 apoptosis assay (Flick et al., 1984 J. Immunol. Methods. 68:167-175). In this assay, TNF-alpha efficiently stimulates cell death in actinomycinD sensitized cells at EC50 values in the picomolar range.
Cells have been resuspended in medium containing FBS and antibiotics. A cell suspension of 100 μl of a densitiy of 3.5×10^5 cells/ml has been seeded into the wells of a 96 well standard cell culture plate followed by over night incubation in a humidified CO2 incubator. Thereafter, the culture medium has been removed and 50 μl of medium containing FBS, ActinomycinD and antibiotics has been added to each well followed by a further 30 min incubation time. Thereafter, 50 μl of the test items, TNFα-modified ubiquitin based ED-B binding-fusions or the human recombinant TNFαcontrol, at an appropriate concentration range of between 10^−7 and 10^−18 M, have been added. After a further 48 h incubation time the metabolic activity as a measure of cell survival was determined using WST-1 reagent (Roche).
Per test item at least three independent experiments have been conducted, each of them in triplicates. […]
The quantitative evaluation is based on the EC50-value, i.e. the value according to the test item concentration promoting the survival of half of the cells.

Chain of ED-B containing fibronectin fragment (67B89) (P02751 32-2477): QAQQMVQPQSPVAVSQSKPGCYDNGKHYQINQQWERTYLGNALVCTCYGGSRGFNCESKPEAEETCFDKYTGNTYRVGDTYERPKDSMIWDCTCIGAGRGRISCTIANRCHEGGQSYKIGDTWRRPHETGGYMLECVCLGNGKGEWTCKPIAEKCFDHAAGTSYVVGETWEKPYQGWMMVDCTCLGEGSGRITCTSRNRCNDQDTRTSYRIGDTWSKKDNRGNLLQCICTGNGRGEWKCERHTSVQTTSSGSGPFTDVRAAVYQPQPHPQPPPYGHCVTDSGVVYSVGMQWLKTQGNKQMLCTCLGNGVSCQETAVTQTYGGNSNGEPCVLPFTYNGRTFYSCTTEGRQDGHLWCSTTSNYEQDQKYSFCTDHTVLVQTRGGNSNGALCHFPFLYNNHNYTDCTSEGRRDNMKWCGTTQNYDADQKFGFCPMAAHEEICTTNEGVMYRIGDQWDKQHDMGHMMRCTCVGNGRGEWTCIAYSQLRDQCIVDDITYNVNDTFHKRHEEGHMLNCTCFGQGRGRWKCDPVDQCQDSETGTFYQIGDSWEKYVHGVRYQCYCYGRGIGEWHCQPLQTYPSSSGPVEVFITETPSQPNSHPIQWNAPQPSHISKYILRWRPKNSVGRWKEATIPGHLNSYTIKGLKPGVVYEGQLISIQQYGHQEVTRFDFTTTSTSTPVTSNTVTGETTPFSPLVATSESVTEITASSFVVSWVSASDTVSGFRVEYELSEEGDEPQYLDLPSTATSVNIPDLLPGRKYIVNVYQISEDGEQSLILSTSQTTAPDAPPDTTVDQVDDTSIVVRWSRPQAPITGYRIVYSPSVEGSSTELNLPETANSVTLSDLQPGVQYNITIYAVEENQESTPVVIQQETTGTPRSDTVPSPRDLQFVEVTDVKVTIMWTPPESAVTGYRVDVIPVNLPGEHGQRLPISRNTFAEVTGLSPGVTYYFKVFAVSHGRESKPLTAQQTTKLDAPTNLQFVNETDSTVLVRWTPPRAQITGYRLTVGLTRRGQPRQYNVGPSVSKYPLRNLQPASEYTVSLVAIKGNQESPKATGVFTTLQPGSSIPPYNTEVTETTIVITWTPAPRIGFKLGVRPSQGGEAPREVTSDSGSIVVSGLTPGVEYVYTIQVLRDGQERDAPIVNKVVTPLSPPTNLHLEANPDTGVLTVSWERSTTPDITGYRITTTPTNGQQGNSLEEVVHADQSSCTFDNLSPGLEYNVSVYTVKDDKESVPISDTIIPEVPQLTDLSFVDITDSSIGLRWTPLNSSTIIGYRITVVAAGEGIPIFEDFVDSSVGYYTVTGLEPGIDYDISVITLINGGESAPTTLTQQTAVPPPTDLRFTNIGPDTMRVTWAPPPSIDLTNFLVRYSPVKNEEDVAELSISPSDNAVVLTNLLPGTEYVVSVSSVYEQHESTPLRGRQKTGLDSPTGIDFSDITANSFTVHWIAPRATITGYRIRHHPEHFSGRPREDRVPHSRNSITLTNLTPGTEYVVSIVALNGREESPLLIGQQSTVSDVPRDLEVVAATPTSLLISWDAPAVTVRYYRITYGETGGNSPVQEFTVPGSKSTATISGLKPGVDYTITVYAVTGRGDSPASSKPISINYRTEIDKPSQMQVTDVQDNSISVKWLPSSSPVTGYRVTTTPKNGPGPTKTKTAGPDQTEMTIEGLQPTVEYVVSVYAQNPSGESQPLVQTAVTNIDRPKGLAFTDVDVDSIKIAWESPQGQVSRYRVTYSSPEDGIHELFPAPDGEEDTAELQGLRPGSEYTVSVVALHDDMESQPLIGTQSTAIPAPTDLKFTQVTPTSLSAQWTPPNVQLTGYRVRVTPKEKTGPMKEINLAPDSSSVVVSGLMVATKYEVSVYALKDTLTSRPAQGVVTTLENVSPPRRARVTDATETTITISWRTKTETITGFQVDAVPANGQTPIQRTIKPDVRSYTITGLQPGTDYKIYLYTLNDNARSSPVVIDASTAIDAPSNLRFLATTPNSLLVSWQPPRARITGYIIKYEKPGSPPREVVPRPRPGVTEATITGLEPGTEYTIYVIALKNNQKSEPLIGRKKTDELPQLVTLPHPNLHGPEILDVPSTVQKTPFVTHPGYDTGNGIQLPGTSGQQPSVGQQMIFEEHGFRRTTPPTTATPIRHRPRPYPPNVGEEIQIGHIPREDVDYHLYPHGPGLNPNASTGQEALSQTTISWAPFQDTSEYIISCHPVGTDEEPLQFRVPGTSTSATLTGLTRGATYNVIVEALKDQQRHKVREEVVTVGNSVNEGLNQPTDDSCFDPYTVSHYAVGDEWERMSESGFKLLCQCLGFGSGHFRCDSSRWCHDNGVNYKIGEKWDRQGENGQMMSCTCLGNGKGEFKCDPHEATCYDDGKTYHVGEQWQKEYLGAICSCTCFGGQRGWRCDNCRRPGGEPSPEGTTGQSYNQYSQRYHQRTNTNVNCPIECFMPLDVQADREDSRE
Chain of fibronectin fragment 67B89 (soluble ED-B) (P02751 32-2477): as above
T2 sequence (P02751 1089-1449 isoform P02751-1): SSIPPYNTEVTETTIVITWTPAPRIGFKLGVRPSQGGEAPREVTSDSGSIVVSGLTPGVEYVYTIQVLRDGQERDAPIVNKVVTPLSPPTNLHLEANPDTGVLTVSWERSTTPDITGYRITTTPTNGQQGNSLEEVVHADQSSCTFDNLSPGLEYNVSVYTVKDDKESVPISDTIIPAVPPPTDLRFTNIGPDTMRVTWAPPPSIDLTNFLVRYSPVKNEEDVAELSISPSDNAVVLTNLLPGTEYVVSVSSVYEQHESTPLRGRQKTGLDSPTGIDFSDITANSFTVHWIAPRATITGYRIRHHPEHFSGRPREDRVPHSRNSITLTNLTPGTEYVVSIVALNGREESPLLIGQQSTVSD
Chain of immobilized ED-B containing fibronectin fragment (67B89) (P02751 32-2477): as the sequence (P02751 32-2477) above
Chain of ED-B (67B89) (P02751 32-2477): as above
T1 sequence (P02751 1089-1449 isoform P02751-1 limits assumed): as the sequence (P02751 1089-1449 isoform P02751-1) above

IC50 [1] | koff [4] | kon [4] | binding to negative control fibronectin fragment without ED-B (6789) [5] | staining of F9 tumor tissue sections [12] | Substance | unspecific staining in 48 tissues of FDA relevant panel [2] | influence of blood serum on binding to ED-B [3] | binding to fixed murine Balb 3T3-cells [6] | binding to monocytes/macrophages (Raw) [7] | complex formation with 67B89 [8] | binding to fixed murine ST-2-cells [9] | complex formation with 6789 [10] | binding to vital Wi38 cells [11] | binding to fixed Wi38 cells ([11]; 58.7 nM and 587 nM) | EC50 [13]
140 nM | 0.00077 s⁻¹ | 760000 M⁻¹ s⁻¹ | no binding | ED-B specific vascular staining | 1041-D11: hetero-dimeric ubiquitin variant: K6W, L8W, K63R, E64K, S65F, T66P; second module Q2R, K6T, L8Q, Q62W, K63S, E64N, S65W, T66E | no unspecific staining | not significantly influenced | binds to murine Balb 3T3 cells with high specificity | No binding | formation of a complex; also recorded: builds a complex | binds to murine Balb ST-2 cells with high specificity | no significant binding; also recorded: builds no complex | binds to vital Wi38 cells with high specificity | binds to fixed Wi38 cells with high specificity | –
– | – | – | – | – | TNFα [reference compound] | – | – | – | – | – | – | – | – | – | 0.00314 ± 0.00359 nM
